Laboratory results as given in the supplement of paper PMC6757056.
± gives the standard deviation of the averaged measurements.

B1: library; a variant is named by its letters at N, in order (parent)
chain: GCUGUCACCGGUGUAUUACCCUAGUGGUCGACCGGUCUGAUGAGUCUNNNNNNAGACGAAACAGC

Assays:
hypoxanthine [1] = variants of: B1; assay: FACS-Seq fitted mean relative fluorescence mCherry/BFP without ligand (log10 relative fluorescence); ligand: hypoxanthine (xanthine aptamer); higher = higher reporter protein expression; settings: HEK293T, ligand present: no
Description: (§1)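 Hammerhead (sTRSV) ribozyme switch libraries with a ligand aptamer grafted on stem I and a randomized N4-6 loop II, cloned into the 3' UTR of mCherry and transiently transfected into HEK293T cells; RNA-Seq 72 h post transfection with ligand added 1 h before transfection; RNA read count / plasmid DNA read count normalized to the non-cleaving sTRSVctl (x100), log10; sequences with >100 DNA reads. FACS-Seq: lentiviral library sorted into 6 bins after 48 h ligand, log-normal fit mean of mCherry/BFP scaled to controls. Printed sequences are partial switch sequences.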

hypoxanthine [2] = variants of: B1; assay: normalized RNA/DNA level with ligand (relative to sTRSVctl = 100) (log10 (% of sTRSVctl)); ligand: hypoxanthine (xanthine aptamer); higher = less ribozyme self-cleavage, higher mRNA level; settings: ligand concentration (+) RNA-Seq: 5 mM, HEK293T, reporter: mCherry (pCS4076), ligand present: yes
Description: as §1

hypoxanthine [3] = variants of: B1; assay: normalized RNA/DNA level without ligand (relative to sTRSVctl = 100) (log10 (% of sTRSVctl)); ligand: hypoxanthine (xanthine aptamer); higher = less ribozyme self-cleavage, higher mRNA level; settings: HEK293T, reporter: mCherry (pCS4076), ligand present: no
Description: as §1

hypoxanthine [4] = variants of: B1; assay: FACS-Seq fitted mean relative fluorescence mCherry/BFP with ligand (log10 relative fluorescence); ligand: hypoxanthine (xanthine aptamer); ligand concentration (+) FACS-Seq: 5 mM; higher = higher reporter protein expression; settings: HEK293T, ligand present: yes
Description: as §1

Variant | FACS-Seq fitted mean (log10) (hypoxanthine [1]) | normalized RNA/DNA level with ligand (log10) (hypoxanthine [2]) | normalized RNA/DNA level without ligand (log10) (hypoxanthine [3]) | FACS-Seq fitted mean (log10) (hypoxanthine [4])
GCUGUCACCGGUGUAUUACCCUAGUGGUCGACCGGUCUGAUGAGUCUCAAAGUAGACGAAACAGC [CAAAGU] | 0.529 ± 0.021 | 1.89 ± 0.0058 | 1.82 ± 0.033 | 0.571 ± 0.0084
GCUGUCACCGGUGUAUUACCCUAGUGGUCGACCGGUCUGAUGAGUCUUAAAGGAGACGAAACAGC [UAAAGG] | 0.355 ± 0.035 | 1.84 ± 0.023 | 1.45 ± 0.05 | 0.675 ± 0.094
GCUGUCACCGGUGUAUUACCCUAGUGGUCGACCGGUCUGAUGAGUCUUAAAGCAGACGAAACAGC [UAAAGC] | 0.687 ± 0.044 | 1.92 ± 0.024 | 1.799 ± 0.0067 | 0.694 ± 0.029
GCUGUCACCGGUGUAUUACCCUAGUGGUCGACCGGUCUGAUGAGUCUGAAAAUAGACGAAACAGC [GAAAAU] | 0.558 ± 0.04 | 1.92 ± 0.034 | 1.8 ± 0.02 | 0.532 ± 0.074
GCUGUCACCGGUGUAUUACCCUAGUGGUCGACCGGUCUGAUGAGUCUGAAAAGAGACGAAACAGC [GAAAAG] | 0.326 ± 0.035 | 1.83 ± 0.0058 | 1.47 ± 0.038 | 0.473 ± 0.036
GCUGUCACCGGUGUAUUACCCUAGUGGUCGACCGGUCUGAUGAGUCUCAAACCAGACGAAACAGC [CAAACC] | 0.631 ± 0.0022 | 1.96 ± 0.046 | 1.867 ± 0.0027 | 0.622 ± 0.027
GCUGUCACCGGUGUAUUACCCUAGUGGUCGACCGGUCUGAUGAGUCUUAAAAUAGACGAAACAGC [UAAAAU] | 0.434 ± 0.055 | 1.89 ± 0.071 | 1.76 ± 0.0046 | 0.454 ± 0.039
GCUGUCACCGGUGUAUUACCCUAGUGGUCGACCGGUCUGAUGAGUCUGAAAGGAGACGAAACAGC [GAAAGG] | 0.141 ± 0.013 | 1.74 ± 0.029 | 1.2 ± 0.07 | 0.614 ± 0.017
GCUGUCACCGGUGUAUUACCCUAGUGGUCGACCGGUCUGAUGAGUCUGAAAGAAGACGAAACAGC [GAAAGA] | 0.507 ± 0.093 | 1.92 ± 0.029 | 1.71 ± 0.033 | 0.581 ± 0.065
GCUGUCACCGGUGUAUUACCCUAGUGGUCGACCGGUCUGAUGAGUCUGAAAGCAGACGAAACAGC [GAAAGC] | 0.368 ± 0.056 | 1.86 ± 0.028 | 1.39 ± 0.084 | 0.776 ± 0.043
GCUGUCACCGGUGUAUUACCCUAGUGGUCGACCGGUCUGAUGAGUCUAAAAGGAGACGAAACAGC [AAAAGG] | 0.163 ± 0.004 | 1.78 ± 0.06 | 1.26 ± 0.027 | 0.725 ± 0.056
GCUGUCACCGGUGUAUUACCCUAGUGGUCGACCGGUCUGAUGAGUCUAAAAGAAGACGAAACAGC [AAAAGA] | 0.199 ± 0.0066 | 1.91 ± 0.053 | 1.67 ± 0.025 | 0.556 ± 0.061
GCUGUCACCGGUGUAUUACCCUAGUGGUCGACCGGUCUGAUGAGUCUAAAAAUAGACGAAACAGC [AAAAAU] | 0.418 ± 0.0049 | 1.9 ± 0.06 | 1.74 ± 0.023 | 0.55 ± 0.021
GCUGUCACCGGUGUAUUACCCUAGUGGUCGACCGGUCUGAUGAGUCUAAAAAGAGACGAAACAGC [AAAAAG] | 0.286 ± 0.03 | 1.841 ± 0.013 | 1.52 ± 0.036 | 0.588 ± 0.046
GCUGUCACCGGUGUAUUACCCUAGUGGUCGACCGGUCUGAUGAGUCUAAAACGAGACGAAACAGC [AAAACG] | 0.284 ± 0.015 | 1.85 ± 0.053 | 1.43 ± 0.017 | 0.616 ± 0.077
GCUGUCACCGGUGUAUUACCCUAGUGGUCGACCGGUCUGAUGAGUCUAAAACUAGACGAAACAGC [AAAACU] | 0.313 ± 0.03 | 1.91 ± 0.093 | 1.8616 ± 0.00097 | 0.4 ± 0.12
GCUGUCACCGGUGUAUUACCCUAGUGGUCGACCGGUCUGAUGAGUCUAAAACAAGACGAAACAGC [AAAACA] | 0.709 ± 0.064 | 1.897 ± 0.015 | 1.804 ± 0.015 | 0.65 ± 0.023
GCUGUCACCGGUGUAUUACCCUAGUGGUCGACCGGUCUGAUGAGUCUGAAACAAGACGAAACAGC [GAAACA] | 0.6 ± 0.025 | 1.91 ± 0.047 | 1.857 ± 0.0049 | 0.389 ± 0.13
GCUGUCACCGGUGUAUUACCCUAGUGGUCGACCGGUCUGAUGAGUCUGAAACCAGACGAAACAGC [GAAACC] | 0.401 ± 0.023 | 1.897 ± 0.011 | 1.85 ± 0.022 | 0.469 ± 0.033
GCUGUCACCGGUGUAUUACCCUAGUGGUCGACCGGUCUGAUGAGUCUGAAACGAGACGAAACAGC [GAAACG] | 0.287 ± 0.024 | 1.88 ± 0.023 | 1.51 ± 0.048 | 0.561 ± 0.048
GCUGUCACCGGUGUAUUACCCUAGUGGUCGACCGGUCUGAUGAGUCUGAAACUAGACGAAACAGC [GAAACU] | 0.54 ± 0.047 | 1.92 ± 0.042 | 1.89 ± 0.039 | 0.481 ± 0.042
